Results: publication PMC7145394, “Molecular and Low-Resolution Structural Characterization of the Na^+-Translocating Glutaconyl-CoA Decarboxylase From Clostridium symbiosum” (Frontiers in Microbiology, 2020)
“And” between values parts separate entries of the source, which are not always exact repeats. Identical values can stand only once.

B1: GcdC1, biotin carrier subunit of glutaconyl-CoA decarboxylase (Gcd) from Clostridium symbiosum (natural protein, UniProt B7TVP4 1-149, looked up)
chain: MKYIATINGKRYEVEVERVEGYKSLDRNGVAAPKAPALASTAPVQRPAAPAPAAPAPAAAPAPAAAPAPVAAPAPAAAGATTVEAPMPGKVLDVKVTAGQVVKYGDVVAIMEAMKMETEIVAPADGTVSQILVKAGDPVDTGAAMVVLN
modifications: biotin covalently bound (C-terminal region)
notes: GcdC1, biotin carrier subunit of glutaconyl-CoA decarboxylase, Clostridium symbiosum, 15 kDa; N-terminal region of 30 amino acids, AP region of 48, C-terminal region of 71; Surmised: its biotin is what the monomeric avidin column holds
B2: GcdB, subunit of glutaconyl-CoA decarboxylase (Gcd) from Clostridium symbiosum (enzyme, UniProt B7TVP5 1-379, looked up)
chain: MNFFEIMGEMLAQSGFTALTWKNLVMFAISFVLLYMAIKKQYEPLLLLPIAFGMFLANLPLADLMKESEPWYTQGVLRIMYGGVKSSLFPCLIFLCVGAMTDFGPLIANPISLLLGAAAQFGIYIAFMLANATGLFTVGEAAAIGIIGGADGPTAIYIANNLAPDLVAPIAVAAYSYMALIPMIQPPIMKLLTTKKERAIVMKQLRKVSKVEKVVFPVFVVLFCSLLLPSVAPLLGMLMLGNLFRESGVVERLSDTAQNALCNIVTIMLGTTVGATANGDIFLRVQTIAIIAMGLMAFCFSTVGGVLLGKLLCVVTGGKINPLIGSAGVSAVPMAARVSQTVGSKENPTNFLLMHAMGPNVAGVIGSAVAAGFFMLIFK
notes: GcdB, membrane-spanning subunit (11 putative transmembrane helices) of glutaconyl-CoA decarboxylase, Clostridium symbiosum, 35 kDa (39 kDa in the introduction)
B3: GcdD, small subunit of glutaconyl-CoA decarboxylase (Gcd) from Clostridium symbiosum (natural protein, UniProt B7TVP2 1-95, looked up)
chain: MWTEATMPFGQSVIVSLLGISVVFITLVTLALAIVLISKILRSIIKDGAQKPAPAAAPVVSDEADKETLAVLMATIGMDLELPADQFKIVNVKEL
notes: GcdD, small subunit of glutaconyl-CoA decarboxylase, Clostridium symbiosum, 10 kDa; N-terminal transmembrane helix (13-37), AP-rich region (51-60), C-terminal region (61-95)
B4: GcdA, subunit of glutaconyl-CoA decarboxylase (Gcd) from Clostridium symbiosum (enzyme, UniProt B7TVP1 1-588, looked up)
chain: MNMYSMPGYFQNMPTIGKELVNPNPENEQEIKAVESDIHESIKKALDAGITSEEKLNERGQLSAMQRINALIDPGTWCPLNSLFNPENNKFGTTNIVNGLGRVDGKWVYIVASDNKKMAGAWVPGQAENLIRCSDAAKMMHLPLIYLLNCSGVEFPNQDKVYPNRRGGGTPFFRNSELNQLGIPVIVGIYGTNPAGGGYHSISPTILIAHQDANMAVGGAGILSGMNPKGYIDDEAAEQIIAAQIENSKLKVPAPGSVPIHYDETGFFREVYQNDLGVIDGIKKYISYLPAYNLEFFRVDTPKAPQLPAEDLYSIIPMNQKRPYDIYEVIARLFDNSEFSEYKKGYGPEMVTGLAKVNGLLVGVIANVQGLLMNYPEYKQNSVGIGGKLYRQGLIKMNEFVTLCARDRIPLIWLQDTTGIDVGDEAEKAELLGLGQSLIYSIENSKLPSLEITIRKASAAAHYVLGGPQGNNTNVFSIGTGACEYYVMPGETAANAMYSRKLVKAKKAGEDLQPIIGKMNDMIQMYTDKSRPKYCTEKGMVDEIVDMTEVRPYIQAFTEAAYQNPQSICPMHQMLTPRSTREFETFGK
notes: GcdA, hydrophilic carboxyltransferase subunit of glutaconyl-CoA decarboxylase, Clostridium symbiosum, 65 kDa; For LILBID-MS (soft mode) and EM the complex was cross-linked with glutaraldehyde (GraFix)
B5: GcdC2, biotin carrier subunit of glutaconyl-CoA decarboxylase (Gcd) from Clostridium symbiosum (natural protein, UniProt B7TVP3 1-139, looked up)
chain: MKYTATLNGKQYDVELERIGEYEPIPRYGEAAPAPAAPITAPAAAPAPVAAAPAPAPAPAAPAPAPAAGGTTVEAPMPGKVLDVKVAAGQAVKFGQVVITMEAMKMETEIVAPADGTVAQILVKAGDAVETGTAMVVLN
modifications: biotin covalently bound (C-terminal region)
notes: GcdC2, biotin carrier subunit of glutaconyl-CoA decarboxylase, Clostridium symbiosum, 14 kDa; N-terminal region of 30 amino acids, AP region of 39, C-terminal region of 70; Surmised: its biotin is what the monomeric avidin column holds

Key:
[1] = molecular target: T1, Gcd (glutaconyl-CoA decarboxylase) from Clostridium symbiosum ([Clostridium] symbiosum, UniProt B7TVP1); assay: coupled spectrophotometric assay of crotonyl-CoA formation, […] nm; type: biochemical; details: decarboxylation to crotonyl-CoA; biotin-dependent, biotin covalently bound to GcdC1/GcdC2; DDM-solubilized enzyme
T1 construct: gene gcdA

[2] = molecular target: B4; assay: affinity purification with mass spectrometry; Gcd solubilized from C. symbiosum membranes with 2% DDM in buffer A (50 mM phosphate pH 7.0, 400 mM NaCl, 0.05% DDM), loaded on monomeric avidin agarose, eluted with a biotin step gradient (0-2 mM); bands of SDS-PAGE identified by MALDI-TOF MS; details: partners not purified
[3] = molecular target: the molecule itself; assay: negative-stain electron microscopy, 3D reconstruction; glutaraldehyde-fixed Gcd (50-80 nM) at 200 mM NaCl, stained with 2% uranyl formate; 2D classification and low-resolution 3D map (cisTEM, RELION-3.0)
[4] = molecular target: B5; assay: native MS; LILBID-MS, soft detection mode (14 mJ laser power); 3-7 uM glutaraldehyde-fixed and unconcentrated Gcd complex in 50 mM Tris-HCl pH 7.0, 0.05% DDM, 200 mM NaCl; details: both partners purified
[5] = molecular target: B1; assay: affinity purification with mass spectrometry; Gcd solubilized from C. symbiosum membranes with 2% DDM in buffer A (50 mM phosphate pH 7.0, 400 mM NaCl, 0.05% DDM), loaded on monomeric avidin agarose, eluted with a biotin step gradient (0-2 mM); bands of SDS-PAGE identified by MALDI-TOF MS; details: partners not purified
[6] = molecular target: the molecule itself; assay: native MS; LILBID-MS, soft detection mode (14 mJ laser power); 3-7 uM glutaraldehyde-fixed and unconcentrated Gcd complex in 50 mM Tris-HCl pH 7.0, 0.05% DDM, 200 mM NaCl
[7] = molecular target: B1; assay: as above; details: both partners purified
[8] = molecular target: B4; assay: as above; details: both partners purified

CC(C)(COP(=O)(O)OP(=O)(O)OC[C@H]1O[C@@H](n2cnc3c(N)ncnc32)[C@H](O)[C@@H]1OP(=O)(O)O)[C@@H](O)C(=O)NCCC(=O)NCCSC(=O)/C=C/CC(=O)O [glutaconyl-CoA]
coupled spectrophotometric assay of crotonyl-CoA formation, 340 nm [1]: Purified Gcd was enzymatically active with respect to crotonyl-CoA formation

B1
binding result [2]: binds

B2
stoichiometry N [3]: 2

B3
binding result [4]: binds | binding result [5]: binds

B4
stoichiometry N [6]: 4 and 2 | stoichiometry N [3]: ~4

B5
binding result [7]: binds | binding result [8]: binds
